The values below come from patent US20170298096A1 (CANIMGUIDE THERAPEUTICS, published 2017).

No end group written: not given here.

This assay has as its target T1, His-tagged P3028 (human, not fully specified).
T1 construct: the tag is put first after 'PGE73=His-tag-P3028'; also called PGE73; not shown: His-tag
T1 peptide: {His‑tag}-VFDEFKPLVEEPQNLIK
The assay can be described thus: chip ELISA. A general note: In an ELISA, binding on a coated surface is turned into a signal by an enzyme label.

B1: P28R L3F (peptide)
peptide: KKFDTFFVKLSLFTER
Regarding B1, the ELISA signal worked out at 393.

B2: P28R R16T (peptide)
peptide: KKLDTFFVKLSLFTET
In the case of B2, the ELISA signal came out at 292.

B3: P28R L10E (peptide)
peptide: KKLDTFFVKESLFTER
With B3, the ELISA signal was 81.

B4: P28R L10T (peptide)
peptide: KKLDTFFVKTSLFTER
B4 registered an ELISA signal of 399.

B5: P28R L10N (peptide)
peptide: KKLDTFFVKNSLFTER
B5 displayed an ELISA signal of 365.

B6: P28R L10K (peptide)
peptide: KKLDTFFVKKSLFTER
B6 showed an ELISA signal of 285.

B7: P28R S11E (peptide)
peptide: KKLDTFFVKLELFTER
In the case of B7, the ELISA signal was found to be 234.

B8: P28R L3Y (peptide)
peptide: KKYDTFFVKLSLFTER
B8 returned an ELISA signal of 344.

B9: P28R L3I (peptide)
peptide: KKIDTFFVKLSLFTER
Take B9: the ELISA signal was 454.

B10: P28R L12H (peptide)
peptide: KKLDTFFVKLSHFTER
In turn, B10 displayed an ELISA signal of 460.

B11: P28R L10D (peptide)
peptide: KKLDTFFVKDSLFTER
Molecule B11 returned an ELISA signal of 102.

B12: P28R R16I (peptide)
peptide: KKLDTFFVKLSLFTEI
Molecule B12 displayed an ELISA signal of 176.

B13: P28R L3H (peptide)
peptide: KKHDTFFVKLSLFTER
Consider B13, for which the ELISA signal came out at 477.

B14: P28R L3R (peptide)
peptide: KKRDTFFVKLSLFTER
The molecule B14 returned an ELISA signal of 370.

B15: P28R L3Q (peptide)
peptide: KKQDTFFVKLSLFTER
With B15, the ELISA signal stood at 473.

B16: P28R L3T (peptide)
peptide: KKTDTFFVKLSLFTER
Turning to B16, the ELISA signal came to 451.

B17: P28R R16H (peptide)
peptide: KKLDTFFVKLSLFTEH
B17: the ELISA signal was 239.

B18: P28R S11A (peptide)
peptide: KKLDTFFVKLALFTER
In the case of B18, the ELISA signal stood at 318.

B19: P28R L10R (peptide)
peptide: KKLDTFFVKRSLFTER
Regarding B19, the ELISA signal was 439.

B20: P28R R16W (peptide)
peptide: KKLDTFFVKLSLFTEW
As to B20, the ELISA signal was 202.

B21: P28R L3N (peptide)
peptide: KKNDTFFVKLSLFTER
Molecule B21 gave an ELISA signal of 374.

B22: P28R R16D (peptide)
peptide: KKLDTFFVKLSLFTED
B22 yielded an ELISA signal of 133.

B23: P28R L12A (peptide)
peptide: KKLDTFFVKLSAFTER
On to B23, for which the ELISA signal came out at 462.

B24: P28R L10V (peptide)
peptide: KKLDTFFVKVSLFTER
Molecule B24 showed an ELISA signal of 658.

B25: P28R L12Y (peptide)
peptide: KKLDTFFVKLSYFTER
B25 registered an ELISA signal of 320.

B26: P28R L10F (peptide)
peptide: KKLDTFFVKFSLFTER
For the molecule B26, the ELISA signal is 403.

B27: P28R L12F (peptide)
peptide: KKLDTFFVKLSFFTER
Regarding B27, the ELISA signal is 389.

B28: P28R L12M (peptide)
peptide: KKLDTFFVKLSMFTER
B28 yielded an ELISA signal of 499.

B29: P28R L10I (peptide)
peptide: KKLDTFFVKISLFTER
B29 gave an ELISA signal of 415.

B30: P28R R16Q (peptide)
peptide: KKLDTFFVKLSLFTEQ
B30: the ELISA signal came out at 133.

B31: P28R R16V (peptide)
peptide: KKLDTFFVKLSLFTEV
On to B31, for which the ELISA signal was determined as 254.

B32: P28R R16L (peptide)
peptide: KKLDTFFVKLSLFTEL
With B32, the ELISA signal came out at 217.

B33: P28R L12W (peptide)
peptide: KKLDTFFVKLSWFTER
On to B33, for which the ELISA signal was determined as 409.

B34: P28R L12E (peptide)
peptide: KKLDTFFVKLSEFTER
B34 gave an ELISA signal of 82.

B35: P28R L12R (peptide)
peptide: KKLDTFFVKLSRFTER
Molecule B35 came in with an ELISA signal of 483.

B36: P28R L10A (peptide)
peptide: KKLDTFFVKASLFTER
As to B36, the ELISA signal came out at 426.

B37: P28R L3K (peptide)
peptide: KKKDTFFVKLSLFTER
In the case of B37, the ELISA signal was determined as 386.

B38: P28R R16N (peptide)
peptide: KKLDTFFVKLSLFTEN
Turning to B38, the ELISA signal came to 311.

B39: P28R L12I (peptide)
peptide: KKLDTFFVKLSIFTER
As to B39, the ELISA signal was 456.

B40: P28R L3W (peptide)
peptide: KKWDTFFVKLSLFTER
In the case of B40, the ELISA signal was determined as 341.

B41: P28R R16Y (peptide)
peptide: KKLDTFFVKLSLFTEY
As to B41, the ELISA signal is 311.

B42: P28R L12V (peptide)
peptide: KKLDTFFVKLSVFTER
In the case of B42, the ELISA signal was 545.

B43: P28R L10Q (peptide)
peptide: KKLDTFFVKQSLFTER
Take B43: the ELISA signal worked out at 470.

B44: P28R R16M (peptide)
peptide: KKLDTFFVKLSLFTEM
The molecule B44 gave an ELISA signal of 238.

B45: P28R R16E (peptide)
peptide: KKLDTFFVKLSLFTEE
The molecule B45 displayed an ELISA signal of 107.

B46: P28R L10Y (peptide)
peptide: KKLDTFFVKYSLFTER
The molecule B46 came in with an ELISA signal of 382.

B47: P28R L12D (peptide)
peptide: KKLDTFFVKLSDFTER
In the case of B47, the ELISA signal was 89.

B48: P28R R16K (peptide)
peptide: KKLDTFFVKLSLFTEK
For the molecule B48, the ELISA signal came to 291.

B49: P28R R16A (peptide)
peptide: KKLDTFFVKLSLFTEA
Take B49: the ELISA signal is 226.

B50: P28R R16S (peptide)
peptide: KKLDTFFVKLSLFTES
B50 returned an ELISA signal of 184.

B51: P28R L12S (peptide)
peptide: KKLDTFFVKLSSFTER
Regarding B51, the ELISA signal amounted to 478.

B52: P28R L12K (peptide)
peptide: KKLDTFFVKLSKFTER
Regarding B52, the ELISA signal was determined as 355.

B53: P28R L10H (peptide)
peptide: KKLDTFFVKHSLFTER
Regarding B53, the ELISA signal stood at 293.

B54: P28R L12Q (peptide)
peptide: KKLDTFFVKLSQFTER
Turning to B54, the ELISA signal was 651.

B55: P28R L12N (peptide)
peptide: KKLDTFFVKLSNFTER
Molecule B55 returned an ELISA signal of 462.

B56: P28R L3M (peptide)
peptide: KKMDTFFVKLSLFTER
Molecule B56 showed an ELISA signal of 460.

B57: P28R R16F (peptide)
peptide: KKLDTFFVKLSLFTEF
For B57, the ELISA signal worked out at 297.

B58: P28R L10S (peptide)
peptide: KKLDTFFVKSSLFTER
Consider B58, for which the ELISA signal amounted to 351.

B59: P28R L10W (peptide)
peptide: KKLDTFFVKWSLFTER
For B59, the ELISA signal is 316.

B60: P28R S11D (peptide)
peptide: KKLDTFFVKLDLFTER
The molecule B60 came in with an ELISA signal of 322.

B61: P28R L3S (peptide)
peptide: KKSDTFFVKLSLFTER
B61 had an ELISA signal of 393.

B62: P28R L3V (peptide)
peptide: KKVDTFFVKLSLFTER
Regarding B62, the ELISA signal was found to be 377.

B63: P28R L12T (peptide)
peptide: KKLDTFFVKLSTFTER
B63: the ELISA signal came to 437.

B64: P28R L10M (peptide)
peptide: KKLDTFFVKMSLFTER
Regarding B64, the ELISA signal turned out to be 460.

B65: P28R S11F (peptide)
peptide: KKLDTFFVKLFLFTER
Turning to B65, the ELISA signal was determined as 250.
